Data on 83 variants can be found in the RNAGym collection of RNA variant scans (doi:10.1101/gr.219683.116).

The chains are these.
B1: mRNA-splicing (parent)
chain: AGUUGCUGCUGGGAGCUCCAGCACAGUGAAAUGGACAGAAGGGCAGAGCAA

The data set covers variants of B1. The data set is described as follows: exon inclusion enrichment index; higher = more inclusion; WT1 exon 5 minigene, HEK293.
As for G5C C6G U7C U10C U27C, the “exon inclusion enrichment index” value was 4.97.
As for G5C C6G U7C U10C U27G, the figure is 2.02.
For G5A C6G U7G C9A C36A A37G, the “exon inclusion enrichment index” value was determined as 0.00191.
For the variant G5U G8U C9U G28A A29U, the “exon inclusion enrichment index” value was 0.0186.
In the case of G26A U27A it was 0.101.
G26A U27C: the “exon inclusion enrichment index” value is 0.0175.
As for C6U U7G, the figure is 0.0137; as for G5U G8U C9U G42A, 0.667.
As for G5U G8U C9U C16A, the figure is 0.141; as for G5U G8U C9U C16G, 0.0374; as for G5A U7C G8A U10C G13A A14G, 2.19.
As for G5A U7C G8A U10C G15C C16U, the “exon inclusion enrichment index” value came to 2.28.
As for G5C C6U G8C C9U U10C A35G C36A, the figure is 1.07; as for G5U G8U C9U A37C G38A, 0.157; as for C6A U7A C9A U10A A29G A30G, 0.495.
Consider C6A U7C C9A U10C G11A G12A, for which the “exon inclusion enrichment index” value was determined as 2.21.
With C6A U7C C9A U10C A20U G21C, the “exon inclusion enrichment index” value was determined as 3.73.
For the variant G5A C6G U7G C9A C24G, the “exon inclusion enrichment index” value was 0.00883.
Consider C6A U7A C9A U10A A47C G48U, for which the “exon inclusion enrichment index” value was 0.811.
As for G5C C6G U7C U10C G46A A47C, the figure is 3.6.
In the case of G5A U7C G8A U10C G41U G42U it was 1.9.
For the variant G5C C6U G8C C9G U10G, the “exon inclusion enrichment index” value came to 3.42.
As for C6A U7A C9A U10A C44U A45G, the figure is 0.419; as for C44U A45U, 0.0412.
As for C6A U7A C9A U10A G33U G34U, the “exon inclusion enrichment index” value was found to be 0.0929.
As for G5C C6A U7C G8A U10A C18A C19G, the figure is 0.00323; as for G5C C6G U7C U10C A37U G38U, 1.52.
For the variant G5C C6A U7C G8A U10A G41A G42C, the “exon inclusion enrichment index” value is 0.264.
In the case of G5C C6A U7C G8A U10A G41A G42U it was 0.105.
In the case of G5A C6A U7A G8A U10C it was 0.831; in that of U3C U4G G5A U7C G8A U10C, 2.97.
Consider G5A C6G U7G C9A G28A A29U, for which the “exon inclusion enrichment index” value turned out to be 0.000814.
Regarding G5A U7C G8A U10C A39U A40G, the “exon inclusion enrichment index” value was 0.575.
In the case of G5A U7C G8A U10C G26U it was 2.46.
G5C C6U G8C C9U U10C C24G A25C: the “exon inclusion enrichment index” value amounted to 3.27.
Regarding G5A C6G U7G C9A C36G A37G, the “exon inclusion enrichment index” value was determined as 0.00376.
G5A C6G U7G C9A A31U U32C: the “exon inclusion enrichment index” value worked out at 0.00119.
In the case of G5C C6U G8C U10G it was 1.68.
As for G5C C6G U7C U10C C16U U17G, the figure is 3.07.
As for C6A U7A C9A U10A G34C A35G, the figure is 0.484.
With C6A U7C C9A U10C G38U A39G, the “exon inclusion enrichment index” value stood at 1.89.
With G5A C6G U7G C9A A35C C36A, the “exon inclusion enrichment index” value was determined as 0.000972.
As for C6A U7A C9A U10A A23C C24G, the figure is 1.83.
In the case of C9G U10C, the “exon inclusion enrichment index” value is 0.22.
For C6A U7A C9A U10A A23G C24G, the “exon inclusion enrichment index” value came out at 1.58.
As for A39C, the figure is 0.0251; as for A25C G26A, 0.448.
Consider G5A C6U U7A G8U C9A G21U, for which the “exon inclusion enrichment index” value worked out at 0.0639.
As for G5A C6G U7G C9A A29C A30U, the figure is 0.00149; as for C6A U7A C9A U10A G38A A39U, 0.0204; as for C6A U7A C9A U10A A25C G26A, 1.67.
In the case of C6A U7C C9G U10G it was 0.132.
As for U4C G5A U7C G8A U10C, the figure is 3.18.
As for G15A C16G, the “exon inclusion enrichment index” value turned out to be 0.0571.
As for G5C C6G U7C U10C G12C G13C, the figure is 0.519; as for G5A C6G G8U C9A, 0.00122; as for G5A C6U U7C G8C C9A, 1.04.
In the case of U3C U4C C6A U7C C9A U10C it was 4.17.
In the case of G5A C6G U7G C9A A30G it was 0.00525; in that of G5A U7C G8A U10C A29C, 2.01; in that of G5A U7C G8A U10C A29G, 3.4.
For G5U G8U C9U C24U A25G, the “exon inclusion enrichment index” value worked out at 0.363.
On to A40U, for which the “exon inclusion enrichment index” value worked out at 0.156.
In the case of G5C C6G U7C U10C G33U G34C it was 1.15; in that of U4G G5U C6U G8C C9U U10C, 0.824; in that of G5C C6G U7C U10C C36A, 2.93.
Regarding G5C C6G U7C U10C C36U, the “exon inclusion enrichment index” value came to 1.33.
In the case of G5C C6G U7C U10C C36G it was 3.17; in that of G5U G8C, 1.34.
As for G5A C6U U7A G8U C9A G43A C44U, the figure is 0.072.
In the case of G5A C6U U7A G8U C9A G13U A14C it was 0.0467.
Take G5U C6A U7C U10C: the “exon inclusion enrichment index” value stood at 3.2.
As for G5A C6U U7A G8U U10G, the figure is 0.317.
Take C6A U7C C9A U10C A25U G26C: the “exon inclusion enrichment index” value is 3.26.
As to C6A U7A C9A U10A G46U A47U, the “exon inclusion enrichment index” value was 1.03.
Regarding G5C C6U G8C C9U U10C A30C A31U, the “exon inclusion enrichment index” value came to 2.1.
As for C6A U7A C9A U10A C24U A25U, the figure is 0.761.
As for C6A U7C C9A U10C A47G, the figure is 0.844; as for C6A U7A C9A U10A G15A, 0.818; as for G5C C6A U7C G8A U10A C36G, 0.0563.
As for C6A U7A C9A U10A G15A C16U, the figure is 0.351; as for G5C C6U G8C C9U U10C C44U, 0.527; as for G26C U27A, 0.11.
